Target: Gab1^F627/659 (Y627F/Y659F) (mouse) (UniProt Q9QYY0)
UniProt Q9QYY0, sequence (Q9QYY0 whole entry, stated change not applied): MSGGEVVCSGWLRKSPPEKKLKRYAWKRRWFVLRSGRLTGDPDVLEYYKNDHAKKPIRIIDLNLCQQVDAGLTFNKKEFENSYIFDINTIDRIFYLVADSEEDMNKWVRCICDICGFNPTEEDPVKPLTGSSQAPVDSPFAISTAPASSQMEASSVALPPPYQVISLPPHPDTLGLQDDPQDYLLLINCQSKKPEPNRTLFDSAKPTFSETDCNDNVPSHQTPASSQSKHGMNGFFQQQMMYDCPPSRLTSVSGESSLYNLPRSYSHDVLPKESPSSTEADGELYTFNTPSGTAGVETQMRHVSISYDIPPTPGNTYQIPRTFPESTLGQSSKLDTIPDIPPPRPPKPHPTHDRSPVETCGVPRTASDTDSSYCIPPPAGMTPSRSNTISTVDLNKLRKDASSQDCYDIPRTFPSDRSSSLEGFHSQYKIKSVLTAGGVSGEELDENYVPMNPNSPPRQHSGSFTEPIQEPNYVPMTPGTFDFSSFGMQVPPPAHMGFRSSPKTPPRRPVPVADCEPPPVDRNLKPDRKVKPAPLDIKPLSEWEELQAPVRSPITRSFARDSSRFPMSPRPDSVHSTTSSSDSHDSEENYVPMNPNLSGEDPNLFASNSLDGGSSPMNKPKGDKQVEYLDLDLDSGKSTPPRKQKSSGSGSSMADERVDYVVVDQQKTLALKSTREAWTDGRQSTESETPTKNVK

Gab1-associated PI-3 kinase activity in anti-Gab1 immunoprecipitates after EGF treatment (100 ng/ml, five minutes), relative to wild type Gab1: 2 fold | basal PI-3 kinase activity in anti-Gab1 immunoprecipitates (PIP3 production), relative to wild type Gab1: 1.6 fold
Substance: p85, the regulatory subunit of PI-3 kinase (from UniProt P26450 1-724) (natural protein)
